# Read-outs that look alike come from different tables or passages of the source.
# B1: ObiH: known L-threonine transaldolase of obafluorin biosynthesis, SEQ ID NO: 30, Pseudomonas fluorescens, ARJ35753.1 (protein)
# chain: MSNVKQQTAQIVDWLSSTLGKDHQYREDSLSLTANENYPSALVRLTSGSTAGAFYHCSFPFEVPAGEWHFPEPGHMNAIADQVRDLGKTLIGAQAFDWRPNGGSTAEQALMLAACKPGEGFVHFAHRDGGHFALESLAQKMGIEIFHLPVNPTSLLIDVAKLDEMVRRNPHIRIVILDQSFKLRWQPLAEIRSVLPDSCTLTYDMSHDGGLIMGGVFDSPLSCGADIVHGNTHKTIPGPQKGYIGFKSAQHPLLVDTSLWVCPHLQSNCHAEQLPPMWVAFKEMELFGRDYAAQIVSNAKTLARHLHELGLDVTGESFGFTQTHQVHFAVGDLQKALDLCVNSLHAGGIRSTNIEIPGKPGVHGIRLGVQAMTRRGMKEKDFEVVARFIADLYFKKTEPAKVAQQIKEFLQAFPLAPLAYSFDNYLDEELLAAVYQGAQR
# modifications: Psuedomonas fluorescenes
# B2: BuTTA: TTA, SEQ ID NO: 34, Burkholderia ubonensis (protein, listed as Burkholderia ubonensis)
# chain: MTDFAQAVVNPFVDEQRKSRLVEKISNIFDSLHSDFALDNLYRASHLSLTASENYPSRFVRTLGAGMQGGFYEFAPPYAANPGEWYFPDSGAQSSLVEKLASLGKQLFEANSFDWRPNGGSAAEQAVLLGTCARGDGFVHFAHKDGGHFALEELAQKVGVSIFHLPIEEKSLLIDVDRLATLIKDNPHIKLVILDQSFKLRWQPLLQIRQALPESVVLSYDASHDGGLIIGECLPQPLLFGADIVHGNTHKTIPGPQKGYIAFKNVDHPAMKHVSDWVCPHLQSNSHAELIAPMYIALVEMSLYGRSYAEQVIKNAKALAHALHAEGVRVSGESFGFTETHQVHVVVGSERKALELVTGTLALAGIRCNNIEIPGANGLFGLRLGVQALTRRGIKEHGMAEVARFLVRLILKNESPTAIRNEIASFLESYPINTLHYSLDAHYYTPSGIKLMEEVIA
# B3: KaTTA: L-threonine transaldolase, SEQ ID NO: 1, Kitasatospora aureofaciens, WP_033354341 (protein, listed as Kitasatospora aureofaciens)
# chain: MDVLAALERKHSLNLFPIENRLSPRAAAALASDAVNRYPYSETDVAVYGDVSDLNAVYDHCVSLTKEFYGARHAYVQFLSGLHTMHTVLTAVTPPGGRVMVIAPEDGGHYATVTICQGFGYRVEYVPFDRQTLEIDYTALAERTAEHPADVIYLDASTVLRMPDARALRAAAPGAVLCLDASHLLGLLPAAPGTLVLDAGFDSISGSTHKTLPGPQKGLLVTNSDAIAEQVGARIPFTASSSHSASVGSLAITLEELLPHRGDYARQVIANARELARQLAARGFDVAGEAFGFTDTHQVWVHHPEGNTPHEWGRLLTATDIRTTTVVLPSTARSGLRLGTQELTRWGMKEDDMTTVAELLARLLLRGEQSRSVAADVRDLARSFPGVAFADRPAPLAVA
# B4: PiTTA: TTA, SEQ ID NO: 31, Pseudomonas sp. Irchel s3a18 (protein)
# chain: MKQDESNVGPVIDWLAQTLGQDYKYRQDTLSLTANENYPSELVRLTSGSTAGAFYHCSFPFPVPLGEWHFPEPGQMNEIADDLRGLAKRMMGAQAFDWRPNGGSPAEQALMLAACKQGEGFVHFAHRDGGHFALEQLATKMGIEIFHLPVDPQSLLIDVAKLDDMVRRNPHIRIVILDQSFKLRWQPLAEIRAILPDSCTLTYDMSHDGGLILGGVFDSPLACGADIAHGNTHKTIPGPQKGFIAFKSAQHPLLVETSLWVCPHLQSNCHAELLPSMWAAFKEMEAFGPAYAHQMVRNAKALANQLHELGLNVSGESFGFTETHQVHFAVGDLQQALSMCVDSLHAGGIRSTNIEIPGKPGMHGIRLGVQAMTRRGMKEDDFRRVAGLIADLYFKRTEPARVASKVKELLGDFPLAPLAYSFDQQIDESRRRLLERGIQR
# modifications: Pseudomonas_sp._Irchel_s3a18
# notes: Irchel s3a18
# B5: CsTTA: TTA, SEQ ID NO: 33, Chitiniphilus shinanonensis (protein, listed as Chitiniphilus shinanonensis)
# chain: MTRTTPQARHVVERLNSVLGQDYRYREDCLSLTANENYPSALVRLAGSATAGAFYHCSFPFEVPPGEWYFPESGRMGELAQQLNELGRSLLGAGTFDWRPNGGSPAEQALMLAACKHGEGMVHFAHRDGGHFALENLAQKAGIDIFHLPVDPQTLLIDVARLDELVRRNPQIRIVILDQSFKLRWQPLAAIRKVLPPSCTLTYDTSHDGGLIMGGVFDSPLHCGADVIHGNTHKTVPGPQKGYIAFKSAEHPLLVDTSLWLCPHLQSNCHAELLPPMWVAFKEMEAFGHDYAPQVARNAKALAGHLHRLGFEVSGEAFGFTETHQVHFAVGDLQQALDLCMNTLHRGGIRSTNIEIPGKPGIQGIRLGVQAMTRRGLREDDFEQVARFIADLHFRKADPAGVAAQVAEFLRAFPLAPLHYSFDQELDHELLQSLIGEALR
# Tests used:
# [1] = literature value; ObiH: 4-nitrophenylacetylaldehyde (15), discontinuous HPLC assay; read-out: reported L-Thr KM; cited from earlier work
# [2] = TTA-ADH coupled assay at different L-Thr concentrations (apparent L-Thr KM and kcat); assay type: biochemical; settings: for Km: apparent, phenylacetaldehyde (14) as aldehyde, ADH coupling, non-linear regression; for L-Thr kcat compared with ObiH: phenylacetaldehyde as the aldehyde substrate
# Description: (§1) High-throughput screening of purified TTAs was performed with a TTA-ADH coupled assay using purified TTA and commercially available alcohol dehydrogenase from S. cerevisiae purchased from MilliporeSigma. Aldehyde stocks were prepared in 50-100 mM solutions in DMSO or acetonitrile. Reaction mixtures were prepared in a 96-well plate with 100 μL of 100 mM phosphate buffer pH 7.5, 0.5 mM NADH, 0.4 mM PLP, 15 mM MgCl2, and 100 mM L-Thr with the addition of 0.25 mM to 1 mM aldehyde depending on the background absorbance at 340 nm (Table 4), 10 U ScADH, and 0.25 μM purified TTA unless otherwise specified. Reactions were initiated with the addition of enzyme. […] The following controls were included for every assay: reaction mixture without aldehyde, without TTA, and without enzyme (TTA or ADH). Rates were calculated by identifying the linear region at the beginning of the kinetic run and converting the depletion in absorbance to the depletion of mM NADH using an NADH standard curve.
# We next sought to determine the affinity of these enzymes for L-Thr, which we obtained by performing the TTA-ADH coupled assay at different L-Thr concentrations (FIG. 16b). […] Two differences between our assays were the substrate, phenylacetaldehyde (14) instead of 4-nitrophenylacetylaldehyde (15), and the assay format, ADH coupling rather than a discontinuous HPLC assay. Because a live cellular environment would also contain alcohol dehydrogenases for reduction of acetaldehyde, it is possible that the KM values that we are measuring using the TTA-ADH coupled assay may be more realistic for our envisioned applications.
# [3] = In vitro assay over 20 h with HPLC analysis (amino acid substrate specificity, diastereomeric excess); assay type: biochemical; settings: 3 as aldehyde substrate
# Description: Metabolites of interest were quantified via high-performance liquid chromatography (HPLC) using an Agilent 1260 Infinity model equipped with a Zorbax Eclipse Plus-C18 column. To quantify aldehyde and β-OH-nsAAs, an initial mobile phase of solvent A/B=95/5 was used (solvent A, water+0.1% TFA; solvent B, acetonitrile+0.1% TFA) and maintained for 5 min. A gradient elution was performed (A/B) as follows: gradient from 95/5 to 50/50 for 5-12 min, gradient from 50/50 to 0/100 for 12-13 min, and gradient from 0/100 to 95/5 for 13-14 min. A flow rate of 1 mL min-1 was maintained, and absorption was monitored at 210, 250 and 280 nm.
# We performed an in vitro assay over 20 h using 3 as the aldehyde substrate and either L-Thr, Glycine (Gly), or L-Serine (L-Ser) as the candidate amino acid. Since the TTA-ADH coupled assay is specific to L-Thr, we analyzed TTA activity via HPLC with a chemically synthesized β-OH-nsAA standard for the assumed product from 3.
# [4] = TTA-ADH coupled assay, screen of purified TTAs on 2-nitro-benzaldehyde; assay type: biochemical; settings: substrate 3, TTA-ADH coupled assay
# Description: as §1
# Once purified, we identified the putative TTAs with high activity and further characterized them for their L-Thr affinity and substrate scope. We first screened each purified enzyme using the TTA-ADH coupled assay with 2-nitro-benzaldehyde, 3, the best performing substrate from the screen of ObiH that was not a substrate of the ScADH. […] With this evidence as well as well-aligned, predicted AlphaFold structures, we assumed the impact of the SUMO tag would be minimal for all TTAs screened and moved forward with additional enzyme characterization.
# [5] = TTA-ADH coupled assay, substrate scope of TTAs on aromatic aldehydes; assay type: biochemical; settings: for activity on a set of aromatic aldehyde substrates (substrate scope): substrates 1, 3, 6, 7, 8, 12, 15
# Description: as §1
# We specifically selected substrates with ring substituents with different electron withdrawing properties (1, 3, 6, 7, 8), substituent size (12), and aldehyde chain length (15) to compare the activity of the putative TTAs to ObiH. We were also encouraged by the activity of PbTTA and KaTTA on vanillin and protocatechualdehyde which are substrates that would form products like commercially available therapeutic, Droxidopa (FIG. 18).
# To explore the possibility that DbTTA and TmTTA are TTAs active on other related aldehydes, we sought to examine their activity with L-Thr and aldehyde substrates with different ring substituent position (2), bulkier, hydrophobic chemistry (10), and aldehyde chain length (14) using the TTA-ADH coupled assay.
Molecule,Km [1],Km [2],β-OH-nsAA formation using L-Ser or Gly [3],L-Thr kcat compared with ObiH [2],activity on 2-nitro-benzaldehyde relative to ObiH [4],activity on a set of aromatic aldehyde substrates (substrate scope) [5],activity on vanillin and protocatechualdehyde ([5]; TTA-ADH coupled assay)
B1,40.2 ± 3.8 mM,29.5 mM,,,,,
B2,,,no β-OH-nsAA formation,higher measured L-Thr kcat values than ObiH,comparable to or better than ObiH,relatively selective,
B3,,19.1 mM,no β-OH-nsAA formation,,comparable to or better than ObiH,,activity
B4,,,no β-OH-nsAA formation,higher measured L-Thr kcat values than ObiH,comparable to or better than ObiH,relatively selective,
B5,,,no β-OH-nsAA formation,higher measured L-Thr kcat values than ObiH,comparable to or better than ObiH,,
